According to PMC8878330 (Molecules, 2022):

Assays:
[1] = system: C[C@@H](O)[C@H]1C(=O)N2C(C(=O)O)=C(SCCN=CN)C[C@H]12; assay: steady-state hydrolysis kinetics with purified NDM-1 (Km); format: biochemical, Klebsiella pneumoniae; settings: Zn2+ (two Zn ions)
[2] = system: CC1(C)S[C@@H]2[C@H](NC(=O)[C@H](N)c3ccccc3)C(=O)N2[C@H]1C(=O)O; assay: as above; format: biochemical, Klebsiella pneumoniae; settings: Zn2+ (two Zn ions)
[3] = system: CO/N=C(\C(=O)N[C@@H]1C(=O)N2C(C(=O)O)=C(COC(C)=O)CS[C@H]12)c1csc(N)n1; assay: as above; format: biochemical, Klebsiella pneumoniae; settings: Zn2+ (two Zn ions)
[4] = system: C[C@@H](O)[C@H]1C(=O)N2C(C(=O)O)=C(S[C@@H]3CN[C@H](C(=O)N(C)C)C3)[C@H](C)[C@H]12; assay: as above; format: biochemical, Klebsiella pneumoniae; settings: Zn2+ (two Zn ions)
[5] = target: T1, New Delhi metallo-β-lactamase-1 (NDM-1) (Klebsiella pneumoniae, UniProt C7C422); assay: biochemical
T1 construct: gene blaNDM-1
T1 sequence (C7C422 29-270 limits assumed): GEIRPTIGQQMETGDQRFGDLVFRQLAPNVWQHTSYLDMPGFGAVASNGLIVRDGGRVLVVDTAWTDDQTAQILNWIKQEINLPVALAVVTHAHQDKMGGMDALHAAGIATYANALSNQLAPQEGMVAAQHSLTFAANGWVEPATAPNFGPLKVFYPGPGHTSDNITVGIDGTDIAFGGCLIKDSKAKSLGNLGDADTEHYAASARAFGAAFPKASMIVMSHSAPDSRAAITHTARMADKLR

[6] = target: T1, New Delhi metallo-β-lactamase-1 (NDM-1); assay: steady-state hydrolysis kinetics with purified NDM-1 (Km); format: biochemical

## New Delhi metallo-β-lactamase-1 (NDM-1) (Klebsiella pneumoniae)
[1]
  Km: 75.9 ± 2.9 µM
  Vmax: 91 µM/min
  kcat: 758 ± 18.6 s⁻¹
  kcat/Km: 9.99e+06 ± 450000 M⁻¹ s⁻¹
[2]
  Km: 96.5 ± 3.1 µM
  Vmax: 44.9 µM/min
  kcat: 375 ± 14.3 s⁻¹
  kcat/Km: 3.88e+06 ± 190000 M⁻¹ s⁻¹
[3]
  Km: 54.8 ± 3.7 µM
  Vmax: 45.1 µM/min
  kcat: 375 ± 17.5 s⁻¹
  kcat/Km: 6.85e+06 ± 560000 M⁻¹ s⁻¹
[4]
  Km: 52.8 ± 3.4 µM
  Vmax: 38.6 µM/min
  kcat: 322 ± 11.7 s⁻¹
  kcat/Km: 6.1e+06 ± 450000 M⁻¹ s⁻¹

## O=P(O)(O)C(O)(Cc1cccnc1)P(=O)(O)O [risedronate]
[5]
  IC50: 24.6 µM

## O=C(Cc1cccs1)N[C@@H]1C(=O)N2C(C(=O)O)=C(/C=C/c3ccc([N+](=O)[O-])cc3[N+](=O)[O-])CS[C@H]12 [nitrocefin]
[6]
  Km: 23.2 ± 1.7 µM
